Experimental findings from patent publication EP4659811A1 (Université de Strasbourg, dated 2025) are described below.

For experiment [1], the target named is VP1 capsid protein on BKV pseudovirions of genotype Ia (BK-D; JF894228) (BK virus genotype Ia (BK-D)). Kind of experiment: cell-based or functional assay.
Experiment [2] concerns the target VP1 capsid protein on BKV pseudovirions of genotype IVc2 (A-66H; AB369093) (BK virus genotype IVc2 (A-66H)). The experiment is described as follows: cell-based or functional assay.
The target in experiment [3] is VP1 capsid protein on BKV pseudovirions of genotype II (GBR-12; AB263920) (BK virus genotype II (GBR-12)). Kind of experiment: cell-based or functional assay.
In experiment [4] the target is T1, VP1 pentamer of BKV genotype II (recombinant) (BK virus genotype II, UniProt P14996 30-300).
T1 construct: also called GII; VP1 geno II pentamer; not shown: N-terminal His-tag of pESPRIT002; C-terminal biotin acceptor peptide (BAP) of pESPRIT002
Kind of experiment: ELISA, coated VP1 pentamer. In general terms: An ELISA detects its analyte on a solid surface through an enzyme-linked reagent.

Experiment [5] has as its target T2, VP1 pentamer of BKV genotype IV (recombinant) (BK virus genotype IV, UniProt P14996 30-300).
T2 construct: also called GIV; VP1 BKV subtype IV; not shown: N-terminal His-tag of pESPRIT002; C-terminal biotin acceptor peptide (BAP) of pESPRIT002
Kind of experiment: ELISA, coated VP1 pentamer.

B1: antibody G8P7 (antibody, V domains shown)
VH: QLQLQESGPGLVQPSETLSLTCTVSGGYISTSSYYWGWIRQPPGKGLEWIGSIEYSGSTYYNPSLKSRVTISVDTSKNQFSLKLSSVTAADTAVYYCASANSKYYDSGGYYAPGALDLWGQGTMVTVSS
VL: EIVMTQSPATLSVSPGERATLSCRASQSVSSHLAWYQHKRGQAPRLLIYAASSRATGIPARFSGRGSGTEFTLTISSLQSEDFAVYYCQQYNNWPPGYSFGQGTKLEIK
One may read the EC50 as the concentration at which the effect is half-maximal. With B1, the figures for the “Neutralization PSV IC50” value in experiment [1], in experiment [2] and in experiment [3] were greater than 50 µg/mL, greater than 50 µg/mL and 21.3 µg/mL, respectively. Further, the figures for the EC50 in experiment [4] and in experiment [5] were 25 µg/mL and 5 µg/mL, respectively.

B2: antibody B5P4 (antibody, V domains shown)
VH: QVQLVQSGAEVKKPGSSVKVSCKASGGRFSRYGSSWVRQAPGQGLEWMGGIIPLLGTANYAQKFQDRVSITADESTSTVYMHLSSLRSEDTAVYYCATARREYDRPGAEYFIQWGQGTLVTVSS
VL: EIVMTQSPATLSVSPGERATLSCRASQSVSTNLAWYQQKPGQAPRLLIYDAFLRATGIPARFSGSGSGTEFTLTISSLQPEDFAVYYCQQYNYWPPLTFGGGTKVEIK
In the case of B2, the “Neutralization PSV IC50” value in experiment [1] was greater than 3.12 µg/mL; in experiment [2] it was greater than 50 µg/mL; in experiment [3], greater than 50 µg/mL. Also, the binding result in experiment [4] and in experiment [5] was “no binding (tested: starting at 50 µg/mL)” in each case.

B3: antibody E2P6 (antibody, V domains shown)
VH: EVQLVESGGGLIQPGGSLRLSCAASGFTVSTNCMSWVRQAPGTGLEWVSVIYSGGTTYYADSVKGRFTISRDNSRNTLYLQMNGLRAEDTAVYYCARSVDTYDIYALDVWGQGTTVTVSS
VL: DIQMTQSPSTLSASVGDRVTITCRASQSISRWLAWYQQKPGKAPKLLIYKASGLHSGAPSRFSGSGSGTEFTLTISGLQPDDFATYFCQQYNSYPWTFGQGTKVEIK
B3: the “Neutralization PSV IC50” value in experiment [1], in experiment [2] and in experiment [3] was greater than 50 µg/mL throughout. Moreover, the results for the EC50 in experiment [4] and in experiment [5] were 0.14 µg/mL and 0.6 µg/mL, respectively.

B4: antibody B8P7 (antibody, V domains shown)
VH: QVQLQESGPGLVRPSETLSLTCTVSGGSISPYYWNWIRQPPGKGLEWIGYIYYSGNTKYNPSLKSRVTISVDTSKNQFSLKLSSVSAADTAVYYCARDSCSGTCYLGDNWFDPWGQGTLVTVSS
VL: QSVLTQPPSVSGAPGQRVTISCTGSSSNIGANNDVHWYQHLPGTAPKLLIYGNNHRPSGVPDRFSGSKSGTSASLAITGLQAEDEADYYCQSYDSSLSTSKVFGGGTKLTVL
B4: the “Neutralization PSV IC50” value in experiment [1] worked out at 0.0019 µg/mL; in experiment [2], 0.164 µg/mL; in experiment [3], 0.0004 µg/mL. Moreover, the values for the EC50 in experiment [4] and in experiment [5] were 0.04 µg/mL and 3 µg/mL, respectively.

B5: antibody C4P6 (antibody, V domains shown)
VH: QVQLQESGPGLVRPSETLSLTCTVSGGSISPYYWNWIRQPPGKGLEWIGYIYYSGNTKYNPSLKSRVTISVDTSKNQFSLKLSSVSAADTAVYYCARDSCSGTCYLGGNWFDPWGQGTLVTVSS
VL: QSVLTQPPSVSGAPGQRVTISCTGSSSNIGANNDVHWYQHLPGTAPKLLIYGNNHRPSGVPDRFSGSKSGTSASLAITGLQAEDEADYYCQSYDSSLSTSKVFGGGTKLTVL
Regarding B5, the “Neutralization PSV IC50” value amounted to 0.32 µg/mL in experiment [1], 0.726 µg/mL in experiment [2] and 0.103 µg/mL in experiment [3]. The concentration for a half-maximal effect (EC50) in experiment [4] was determined as 2.5 µg/mL; in experiment [5] it was 2.25 µg/mL.

B6: antibody G6P7 (antibody, V domains shown)
VH: QVQLQESGPGLVRPSETLSLTCTVSGGSISPYYWNWIRQPPGKGLEWIGYIYYSGNTKYNPSLKSRVTISVDTSKNQFSLKLSSVSAADTAVYYCARDSCSGTCYLGDNWFDPWGQGTLVTVSS
VL: QSVLTQPPPVSGAPGQRVTISCTGSSSNIGANNDVHWYQHLPGTAPKLLIYGNNHRPSGVPDRFSGSKSGTSASLAITGLQAEDEADYYCQSYDSSLSTSKVFGGGTKLTVL
B6: the “Neutralization PSV IC50” value in experiment [1] amounted to 0.0038 µg/mL; in experiment [2], 0.883 µg/mL; in experiment [3], 0.0041 µg/mL. In addition, the concentration giving a half-maximal response (EC50) came to 0.2 µg/mL in experiment [4] and 2.5 µg/mL in experiment [5].

B7: antibody E5P6 (antibody, V domains shown)
VH: EVQLVESGGGVVQPGRSLRLSCAASGFIFNNHGMHWVRQAPGKGLEWVAGISYDGKKEYYIGSVKGRFTISRDNSRNTLYLHMNGLRPEDTAVYYCAKEAYGSGSPCDYWGQGTLVTVSS
VL: EIVLTQSPGTLSLSPGERATLSCRASQRVSSNYLAWYQQKPGQAPRLLIYGASSRATGIPDRFSGSGSGTDFTLTISRLEPEDFAVYYCQQYGTSPRSFGRGTKLEIK
With B7, the “Neutralization PSV IC50” value in experiment [1], in experiment [2] and in experiment [3] was greater than 50 µg/mL throughout. Besides, the EC50 in experiment [4] was 6 µg/mL; in experiment [5], 5 µg/mL.

B8: antibody C9P1 (antibody, V domains shown)
VH: EVQLLESGGGLVQPGGSLRLSCVTSGFTFSSYSMTWVRQAPGKGLEWVSYISSSSRTISYADSVQGRFTISRDNAKNVLYLQMNSLRAEDTAVYYCARQAVAHFDYWGQGTLVTVSS
VL: EIVLTQSPGTLSLSPGERATLSCRASQRVSSNYLAWYQQKPGQAPRLLIYGASSRATGIPDRFSGSGSGTDFTLTISRLEPEDFAVYYCQQYGTSPRSFGQGTKVEIK
Regarding B8, the “Neutralization PSV IC50” value in experiment [1], in experiment [2] and in experiment [3] was greater than 50 µg/mL in each case. Besides, the binding result in experiment [4] and in experiment [5] was “no binding (tested: starting at 50 µg/mL)” each time.

B9: antibody B9P4 (antibody, V domains shown)
VH: EVQLVESGGGVVQPGRSLRLSCAASGFTFSSYGMHWVRQAPGKGLEWVAVISKDGSNKYEADFVKGRFTISRDNSKNTLYLQMNSLRAEDTAVYYCAKIPLRRYSDSGDYSSGDFWGQGTLVTVSS
VL: DVVMTQSPLSLTVTLGQPASISCRSSENLVYSDGNTYLSWFQQRPGQSPRRLIYKVSTRDSGVPDRFSGSGSGTDFTLKISRVEAEDVGVYYCMQTTHWPPLTFGGGTKVEIK
Regarding B9, the results for the “Neutralization PSV IC50” value in experiment [1], in experiment [2] and in experiment [3] were 4.96 µg/mL, greater than 50 µg/mL and 16.3 µg/mL, respectively. For the same molecule, the results for the EC50 in experiment [4] and in experiment [5] were no less than 7 µg/mL and no less than 10 µg/mL, respectively.

B10: antibody C11P1 (antibody, V domains shown)
VH: QVQLQESGPGLVKPSETLSLTCTVSGGSIRNSYWSWIRQPPGKGLEWIGYIYYTGTTNSNPSLKSRATISVHMSQNQISLKLNSVTPADTAVYYCAQGGGSGDLHYWGQGTLVTVSS
VL: NFMLTQPASVSGSPGQSITISCTGTRSDVGGYNYVSWYQQHPGKAPKLMIYDISSRPSGVSNRFSASKSGNTASLTISGLQAEDEADYYCISFATGYTWVFGGGTRLTVL
With B10, the “Neutralization PSV IC50” value in experiment [1] came to 0.351 µg/mL; in experiment [2] it was 0.0942 µg/mL; in experiment [3] it was 0.0015 µg/mL. In addition, the EC50 in experiment [4] is 0.045 µg/mL; in experiment [5], 0.22 µg/mL.

B11: antibody B2P8 (antibody, V domains shown)
VH: QVQLQESGPGLVKPSETLSLTCTVSGGSIRNSYWSWIRQPPGKGLEWIGYIYYTGTTNSNPSLKSRVTISVHMSQNQISLKLNSVTPADTAVYYCAQGGGSGDLHYWGQGTLVTVSS
VL: EIVLTQSPDTLSLSPGARATLSCRASQSVRSNYLAWYQQKPGQAPRLLIYGASSRATAIPDRFSGSGSGTDFTLTITRLEPEDFAVYYCHQYASSPRTFGQGTKVEIK
For B11, the “Neutralization PSV IC50” value in experiment [1], in experiment [2] and in experiment [3] was greater than 50 µg/mL each time. Besides, the EC50 in experiment [4] stood at 5 µg/mL; in experiment [5] it was 12 µg/mL.

B12: antibody E7P5 (antibody, V domains shown)
VH: QVQLQESGPGLVKPSETLSLTCTVSGGSIRNSYWSWIRQSPGKGLEWIGYIYYTGSTNSNPSLKSRLTVSVHMSQNQISLKLNSVTPADTAVYYCAQGGGSGDLHYWGQGTLVTVSS
VL: QSALTQPASVSGSPGQSITISCTGTRSDVGGYNYVSWYQQHPGKAPKLIIYDISSRPSGVSNRFSASKSGNTASLTISGLQAEDEADYYCISFATGYTWVFGGGTSLTVL
In the case of B12, the “Neutralization PSV IC50” value in experiment [1] came to 0.0719 µg/mL; in experiment [2] it was 0.0056 µg/mL; in experiment [3], 0.0002 µg/mL. In addition, the half-maximal effective concentration (EC50) in experiment [4] came out at 0.055 µg/mL; in experiment [5], 0.08 µg/mL.

B13: antibody G5P1 (antibody, V domains shown)
VH: QVQLQESGPGLVKPSGTLSLTCTVSGGSIRNSYWSWIRQPPGKGLEWIGYIYYTGTTNSNPSLKSRVTISVHMSRNQISLKLNSVTPADTAVYYCAQGGGSGDLHYWGQGTLVTVSS
VL: NFMLTQPASVSGSPGQSITISCTGTRSDVGGYNYVSWYQQHPGKAPKLMIYDISSRPSGVSNRFSASKSGNTASLTISGLQAEDEADYYCISFATGYTWVFGGGTRLTVL
For B13, the figures for the “Neutralization PSV IC50” value in experiment [1], in experiment [2] and in experiment [3] were 0.538 µg/mL, 0.108 µg/mL and 0.0016 µg/mL, respectively. For the same molecule, the figures for the concentration giving a half-maximal response (EC50) in experiment [4] and in experiment [5] were 0.07 µg/mL and 2.5 µg/mL, respectively.

B14: antibody E10P2 (antibody, V domains shown)
VH: EVQLLESGGALVQPGGSLRLSCAASGFTFRSYAMNWVRQAPGKGLEWVSSLSSSGTTTYYADSVKGRFTISRDNSKNTMYLQMDSLRGEDTAVYYCAKDRNAQWLGSEPLDPWGQGTLVTVSS
VL: EIVLTQSPGTLSLSPGERATLSCRASQSVSSSYLAWYQQKPGQAPRLLIYGASSRATGIPDRFSGSGSGTDFTLTISSLQPDDFAIYYCQQAYTFPWTFGQGTKLEIK
In the case of B14, the “Neutralization PSV IC50” value in experiment [1] is 1.64 µg/mL; in experiment [2], greater than 50 µg/mL; in experiment [3], 20.1 µg/mL. For the same molecule, the binding result in experiment [4] and in experiment [5] was “no binding (tested: starting at 50 µg/mL)” each time.
